Values quoted from earlier work, collected in publication PMC11187271.

Molecular target: Galectin-1 (Homo sapiens) (UniProt P09382)
Sequence of UniProt P09382 (P09382 2-135): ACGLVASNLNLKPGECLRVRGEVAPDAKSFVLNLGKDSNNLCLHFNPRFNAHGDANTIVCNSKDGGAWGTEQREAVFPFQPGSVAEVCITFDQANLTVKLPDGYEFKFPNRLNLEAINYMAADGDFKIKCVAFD

- Kd: 46 µM
Substance: Thymosin alpha-1 (from UniProt P06454)
